Source: the supplement of paper PMC10567573

B1: C9orf25 (parent)
chain: LARKGSLKNGSMGSPVNQQPKKNN

Variants of: B1
Assay: protein stability index of a GFP-peptide fusion (GPS, HEK-293T) (PSI 1-6); higher = more stable
Details: c terminus: a fixed tail appended
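Note: lentivirally expressed fusions sorted by FACS into six bins by GFP to DsRed ratio, PSI derived from sequencing read proportions per bin multiplied by bin number.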

For LARKGSLKNGSMGSPVNQQPKKNK [N24K], which protein stability index is on record?
Its protein stability index is 5.08.

Which protein stability index does the source give for LARKGSLKNGSMGSPVNQQPKKNH [N24H] here?
The protein stability index was 4.79.

Which protein stability index does the source give for LARKGSLKNGSMGSPVNQQPKKND [N24D] here?
Its protein stability index is 4.85.

With LARKGSLKNGSMGSPVNQQPKKNF [N24F] as the variant, how does the protein stability index read?
Its protein stability index is 3.96.

For LARKGSLKNGSMGSPVNQQPKKNQ [N24Q], which protein stability index is on record?
Its protein stability index is 4.85.

For LARKGSLKNGSMGSPVNQQPKKNM [N24M], which protein stability index is on record?
The protein stability index was 4.02.

With LARKGSLKNGSMGSPVNQQPKKNR [N24R] as the variant, how does the protein stability index read?
The protein stability index was 4.42.

With LARKGSLKNGSMGSPVNQQPKKNE [N24E] as the variant, how does the protein stability index read?
The protein stability index was 4.14.

Which protein stability index does the source give for LARKGSLKNGSMGSPVNQQPKKNA [N24A] here?
Its protein stability index is 4.52.

For LARKGSLKNGSMGSPVNQQPKKNI [N24I], which protein stability index is on record?
Its protein stability index is 3.82.

With LARKGSLKNGSMGSPVNQQPKKNP [N24P] as the variant, how does the protein stability index read?
Its protein stability index is 4.48.

With LARKGSLKNGSMGSPVNQQPKKNG [N24G] as the variant, how does the protein stability index read?
The protein stability index was 4.76.

Which protein stability index does the source give for LARKGSLKNGSMGSPVNQQPKKNL [N24L] here?
The protein stability index was 4.76.

Which protein stability index does the source give for LARKGSLKNGSMGSPVNQQPKKNC [N24C] here?
The protein stability index was 4.69.

Which protein stability index does the source give for LARKGSLKNGSMGSPVNQTPKKNN [Q19T] here?
Its protein stability index is 4.74.

Which protein stability index does the source give for LARKGSLKNGSMGSPVNQVPKKNN [Q19V] here?
Its protein stability index is 4.86.

Which protein stability index does the source give for LARKGSLKNGSMGSPVNQIPKKNN [Q19I] here?
Its protein stability index is 4.85.

With LARKGSLKNGSMGSPVNQRPKKNN [Q19R] as the variant, how does the protein stability index read?
The protein stability index was 4.45.

With LARKGSLKNGSMGSPVNQMPKKNN [Q19M] as the variant, how does the protein stability index read?
Its protein stability index is 4.74.

For LARKGSLKNGSMGSPVNQGPKKNN [Q19G], which protein stability index is on record?
The protein stability index was 5.02.

Which protein stability index does the source give for LARKGSLKNGSMGSPVNQAPKKNN [Q19A] here?
Its protein stability index is 4.92.

Which protein stability index does the source give for LARKGSLKNGSMGSPVNQCPKKNN [Q19C] here?
Its protein stability index is 4.68.

With LARKGSLKNGSMGSPVNQFPKKNN [Q19F] as the variant, how does the protein stability index read?
The protein stability index was 4.5.

With LARKGSLKNGSMGSPVNQSPKKNN [Q19S] as the variant, how does the protein stability index read?
The protein stability index was 4.89.

Which protein stability index does the source give for LARKGSLKNGSMGSPVNQKPKKNN [Q19K] here?
The protein stability index was 4.22.

With LARKGSLKNGSMGSPVNQHPKKNN [Q19H] as the variant, how does the protein stability index read?
The protein stability index was 4.69.

For LARKGSLKNGSMGSPVNQEPKKNN [Q19E], which protein stability index is on record?
Its protein stability index is 4.73.

For LARKGSLKNGSMGSPVNQWPKKNN [Q19W], which protein stability index is on record?
The protein stability index was 3.79.

Which protein stability index does the source give for LARKGSLKNGSMGSPVNQNPKKNN [Q19N] here?
Its protein stability index is 4.72.

For LARKGSLKNGSMGSPVNQPPKKNN [Q19P], which protein stability index is on record?
Its protein stability index is 4.39.

Which protein stability index does the source give for LARKGSLKNGSMGSPVNQLPKKNN [Q19L] here?
Its protein stability index is 4.67.

With LARKGSLKNGSMGSPVNQDPKKNN [Q19D] as the variant, how does the protein stability index read?
The protein stability index was 4.78.

With LARKGSLKNGSMGSPVNQYPKKNN [Q19Y] as the variant, how does the protein stability index read?
The protein stability index was 4.58.

Which protein stability index does the source give for LARKGSLKNGSMGSPVNQQPKMNN [K22M] here?
Its protein stability index is 4.49.

With LARKGSLKNGSMGSPVNQQPKANN [K22A] as the variant, how does the protein stability index read?
Its protein stability index is 4.51.

For LARKGSLKNGSMGSPVNQQPKWNN [K22W], which protein stability index is on record?
The protein stability index was 3.9.

Which protein stability index does the source give for LARKGSLKNGSMGSPVNQQPKINN [K22I] here?
The protein stability index was 3.8.

For LARKGSLKNGSMGSPVNQQPKRNN [K22R], which protein stability index is on record?
Its protein stability index is 4.37.

Which protein stability index does the source give for LARKGSLKNGSMGSPVNQQPKGNN [K22G] here?
The protein stability index was 4.54.

For LARKGSLKNGSMGSPVNQQPKHNN [K22H], which protein stability index is on record?
The protein stability index was 4.02.

For LARKGSLKNGSMGSPVNQQPKDNN [K22D], which protein stability index is on record?
The protein stability index was 4.21.

Which protein stability index does the source give for LARKGSLKNGSMGSPVNQQPKVNN [K22V] here?
Its protein stability index is 3.17.

Which protein stability index does the source give for LARKGSLKNGSMGSPVNQQPKYNN [K22Y] here?
The protein stability index was 3.81.

For LARKGSLKNGSMGSPVNQQPKQNN [K22Q], which protein stability index is on record?
Its protein stability index is 4.82.

For LARKGSLKNGSMGSPVNQQPKENN [K22E], which protein stability index is on record?
The protein stability index was 5.05.

For LARKGSLKNGSMGSPVNQQPKTNN [K22T], which protein stability index is on record?
Its protein stability index is 4.28.

For LARKGSLKNGSMGSPVNQQPKCNN [K22C], which protein stability index is on record?
Its protein stability index is 4.49.

For LARKGSLKNGSMGSPVNQQPKSNN [K22S], which protein stability index is on record?
The protein stability index was 4.41.

For LARKGSLKNGSMGSPVNQQPKFNN [K22F], which protein stability index is on record?
Its protein stability index is 3.56.

For LARKGSLKNGSMGSPVNQQPKLNN [K22L], which protein stability index is on record?
The protein stability index was 3.81.

Which protein stability index does the source give for LARKGSLKNGSMGSPVNQQPKNNN [K22N] here?
The protein stability index was 4.43.

Which protein stability index does the source give for LARKGSLKNGSMGSPVNQQPKPNN [K22P] here?
Its protein stability index is 4.42.

Which protein stability index does the source give for LARKGSLKNGSMGSPVNQQPYKNN [K21Y] here?
Its protein stability index is 4.

For LARKGSLKNGSMGSPVNQQPRKNN [K21R], which protein stability index is on record?
The protein stability index was 4.82.

Which protein stability index does the source give for LARKGSLKNGSMGSPVNQQPDKNN [K21D] here?
Its protein stability index is 5.25.

Which protein stability index does the source give for LARKGSLKNGSMGSPVNQQPFKNN [K21F] here?
Its protein stability index is 4.07.

For LARKGSLKNGSMGSPVNQQPLKNN [K21L], which protein stability index is on record?
Its protein stability index is 4.25.

Which protein stability index does the source give for LARKGSLKNGSMGSPVNQQPSKNN [K21S] here?
Its protein stability index is 4.3.

Which protein stability index does the source give for LARKGSLKNGSMGSPVNQQPMKNN [K21M] here?
Its protein stability index is 4.21.

For LARKGSLKNGSMGSPVNQQPIKNN [K21I], which protein stability index is on record?
Its protein stability index is 4.28.

For LARKGSLKNGSMGSPVNQQPVKNN [K21V], which protein stability index is on record?
The protein stability index was 4.32.

For LARKGSLKNGSMGSPVNQQPPKNN [K21P], which protein stability index is on record?
The protein stability index was 4.18.

With LARKGSLKNGSMGSPVNQQPQKNN [K21Q] as the variant, how does the protein stability index read?
The protein stability index was 4.48.

Which protein stability index does the source give for LARKGSLKNGSMGSPVNQQPGKNN [K21G] here?
The protein stability index was 4.25.

With LARKGSLKNGSMGSPVNQQPNKNN [K21N] as the variant, how does the protein stability index read?
The protein stability index was 4.65.

Which protein stability index does the source give for LARKGSLKNGSMGSPVNQQPAKNN [K21A] here?
Its protein stability index is 4.7.

For LARKGSLKNGSMGSPVNQQPTKNN [K21T], which protein stability index is on record?
Its protein stability index is 4.39.

With LARKGSLKNGSMGSPVNQQPWKNN [K21W] as the variant, how does the protein stability index read?
The protein stability index was 2.95.

For LARKGSLKNGSMGSPVNQQPEKNN [K21E], which protein stability index is on record?
Its protein stability index is 4.87.

Which protein stability index does the source give for LARKGSLKNGSMGSPVNQQPHKNN [K21H] here?
The protein stability index was 4.9.

For LARKGSLKNGSMGSPVNQQPCKNN [K21C], which protein stability index is on record?
Its protein stability index is 3.98.

Which protein stability index does the source give for LARKGSLKNGSMGVPVNQQPKKNN [S14V] here?
The protein stability index was 4.77.

With LARKGSLKNGSMGYPVNQQPKKNN [S14Y] as the variant, how does the protein stability index read?
Its protein stability index is 4.25.

For LARKGSLKNGSMGWPVNQQPKKNN [S14W], which protein stability index is on record?
Its protein stability index is 4.13.

For LARKGSLKNGSMGSPVNQQPKKPN [N23P], which protein stability index is on record?
Its protein stability index is 5.24.

For LARKGSLKNGSMGSPVNQQPKKHN [N23H], which protein stability index is on record?
The protein stability index was 4.91.

For LARKGSLKNGSMGSPVNQQPKKYN [N23Y], which protein stability index is on record?
The protein stability index was 3.82.

With LARKGSLKNGSMGSPVNQQPKKSN [N23S] as the variant, how does the protein stability index read?
Its protein stability index is 4.58.

For LARKGSLKNGSMGSPVNQQPKKGN [N23G], which protein stability index is on record?
Its protein stability index is 4.66.

For LARKGSLKNGSMGSPVNQQPKKWN [N23W], which protein stability index is on record?
Its protein stability index is 4.

Which protein stability index does the source give for LARKGSLKNGSMGSPVNQQPKKRN [N23R] here?
Its protein stability index is 4.18.

With LARKGSLKNGSMGSPVNQQPKKMN [N23M] as the variant, how does the protein stability index read?
Its protein stability index is 3.73.

For LARKGSLKNGSMGSPVNQQPKKAN [N23A], which protein stability index is on record?
Its protein stability index is 4.63.

Which protein stability index does the source give for LARKGSLKNGSMGSPVNQQPKKQN [N23Q] here?
The protein stability index was 4.64.

For LARKGSLKNGSMGSPVNQQPKKVN [N23V], which protein stability index is on record?
The protein stability index was 4.59.

With LARKGSLKNGSMGSPVNQQPKKLN [N23L] as the variant, how does the protein stability index read?
The protein stability index was 4.04.

Which protein stability index does the source give for LARKGSLKNGSMGSPVNQQPKKKN [N23K] here?
Its protein stability index is 4.61.

Which protein stability index does the source give for LARKGSLKNGSMGSPVNQQPKKFN [N23F] here?
Its protein stability index is 4.19.

Which protein stability index does the source give for LARKGSLKNGSMGSPVNQQPKKEN [N23E] here?
The protein stability index was 4.68.

With LARKGSLKNGSMGSPVNQQPKKTN [N23T] as the variant, how does the protein stability index read?
Its protein stability index is 4.89.

For LARKGSLKNGSMGSPVNQQPKKIN [N23I], which protein stability index is on record?
Its protein stability index is 4.61.

Which protein stability index does the source give for LARKGSLKNGSMGSPVNQQPKKDN [N23D] here?
Its protein stability index is 5.02.

Which protein stability index does the source give for LARKGSLKNGSMGSPVNQQPKKCN [N23C] here?
Its protein stability index is 4.68.

With LARKGSLKNGSMGSPGNQQPKKNN [V16G] as the variant, how does the protein stability index read?
Its protein stability index is 4.75.
